Measurements published in US20060281125, “ICBP90 polypeptide and its fragments and polynucleotides coding for said polypeptides and applications for diagnosing and treating cancer” (Institut National de la Sante et de la Recherche Medicale, published 2006).

Target: T1, ICBP-59 (Homo sapiens, UniProt Q96T88 SEQ:263-793)
T1 chain: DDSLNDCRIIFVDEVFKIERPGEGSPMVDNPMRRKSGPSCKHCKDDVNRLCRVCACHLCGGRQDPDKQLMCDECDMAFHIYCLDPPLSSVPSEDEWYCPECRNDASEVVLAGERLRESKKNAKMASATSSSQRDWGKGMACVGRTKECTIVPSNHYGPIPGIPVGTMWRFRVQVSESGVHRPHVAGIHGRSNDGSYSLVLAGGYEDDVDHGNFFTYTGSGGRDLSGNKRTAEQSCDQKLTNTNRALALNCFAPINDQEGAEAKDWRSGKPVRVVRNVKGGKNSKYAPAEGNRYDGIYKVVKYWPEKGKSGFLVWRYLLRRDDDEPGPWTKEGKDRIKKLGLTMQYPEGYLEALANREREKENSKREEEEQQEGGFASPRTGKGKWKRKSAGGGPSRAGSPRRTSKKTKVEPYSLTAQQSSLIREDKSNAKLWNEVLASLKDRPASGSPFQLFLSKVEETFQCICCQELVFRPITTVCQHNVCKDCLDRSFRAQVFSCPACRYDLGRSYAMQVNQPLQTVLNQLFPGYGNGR
Experiment: EMSA; 12 mM HEPES-NaOH pH 7.9, 60 mM KCl, 4 mM Tris-HCl, 12% glycerol, poly(dI/dC), room temperature
Settings: tags: GST fusion (pGEX-4T-1), GST cleaved with thrombin; label: 32P; cohesive EcoRI/XbaI ends
Description: The ICBP-59 protein (1 μg) was incubated with 1 ng of oligonucleotide and labelled at its terminal end by phosphorous ³²P in 12% glycerol, 12 mM HEPES-NaOH (pH 7.9), 60 mM KCl, 4 mM Tris-HCl (pH 7.9), 100 ng BSA, 0.6 mM DTT, and 100 ng poly(dI/dC) in 20 μl (Inouye et al., 1994). After a 30-minutes incubation at room temperature, the reaction mix was loaded in 6% polyacrylamide gels. In competition experiments, the quantity indicated of non-labelled oligonucleotides were added to the reaction mix 10 minutes before the addition of proteins. To examine the binding properties of ICBP90 with regard to the ICB2 box, we used the same protocol except that labelled oligonucleotide contained only one copy of the CCAAT sequence as described below: […]

B1: ICB2X3 (dsDNA)
DNA 1: AATTCGATTGGTTCTGATTGGTTCTGATTGGTTCTT
DNA 2: CTAGAAGAACCAATCAGAACCAATCAGAACCAATCG
B1: binds.
